Sequences and labels used below:
B1: EBA175 CTD (1445–1502) (peptide)
peptide: Biotin-KYQSSEGVMNENNENNFLFEVTDNLDKLSNMFNQQVQETNINDFSEYHEDINDINFKK
notes: also called EBA175 unmodified; source: synthetic peptide; bought: Biomatik, USA
B2: MTRAP full length CTD (452–498), synthetic biotinylated peptide (peptide)
peptide: Biotin-YFLRKEKTEKVVQEETKEENFEVMFNDDALKGKDNKAMDEEEFWALE
notes: source: synthetic peptide; bought: Biomatik, USA
B3: MTRAP CTD short C-terminal peptide (printed residues 479–498) (peptide)
peptide: Biotin-ALKGKDNKAMDEEEFWALE
notes: as for B2
B4: AMA1 full length CTD (567–622) (peptide)
peptide: Biotin-YKRKGNAEKYDKMDEPQDYGKSNSRNDEMLDPEASFWGEEKRASHTTPVLMEKPYY
notes: as for B2
B5: EBA181 CTD (1511–1567) (peptide)
peptide: Biotin-RKNLDDEKGFYDSNLNDSAFEYNNNKYNKLPYMFDQQINVVNSDLYSEGIYDDTTTF
notes: also called EBA181 unmodified; source: synthetic peptide; bought: Biomatik, USA
B6: RH4 CTD (1650–1716) (peptide)
peptide: Biotin-KNSNEPHHIFNIFQKEFSEADNAHSEEKEEYLPVYFDEVEDEVEDEVEDEDENENEVENENEDFNDI
notes: also called RH4 unmodified; source: synthetic peptide; bought: Biomatik, USA
B7: EBA140 CTD (1155–1210) (peptide)
peptide: Biotin-RMGKSNEEYDIGESNIEATFEENNYLNKLSRIFNQEVQETNISDYSEYNYNEKNMY
notes: also called EBA140 unmodified; source: synthetic peptide; bought: Biomatik, USA
B8: RH2B CTD (3211–3254) (peptide)
peptide: Biotin-DRSNKDECDFDMCEEVNNNDHLSNYADKEEIIEIVFDENEEKYF
modifications: cysteine pairing not given here
notes: also called RH2B unmodified; source: synthetic peptide; bought: Biomatik, USA
B9: TRAP full length CTD (530–574) (peptide)
peptide: Biotin-YKFVVPGAATPYAGEPAPFDETLGEEDKDLDEPEQFRLPEENEWN
notes: as for B2
B10: MTRAP CTD phosphorylated at Thr-467 (peptide)
peptide: Biotin-YFLRKEKTEKVVQEE[pT]KEENFEVMFNDDALKGKDNKAMDEEEFWALE
notes: source: phosphorylated synthetic peptide (Biomatik) or peptide phosphorylated in vitro
B11: AMA1 CTD phosphorylated at Ser-610 (peptide)
peptide: Biotin-YKRKGNAEKYDKMDEPQDYGKSNSRNDEMLDPEASFWGEEKRASHTTPVLMEKPYY
modifications: not fully specified (residue 44)
notes: as for B10
B12: EBA175 CTD phosphorylated at T1483 and S1489 (peptide)
peptide: Biotin-KYQSSEGVMNENNENNFLFEVTDNLDKLSNMFNQQVQE[pT]NINDF[pS]EYHEDINDINFKK
notes: as for B10
B13: RH2B CTD phosphorylated at S3233 (peptide)
peptide: Biotin-DRSNKDECDFDMCEEVNNNDHL[pS]NYADKEEIIEIVFDENEEKYF
modifications: cysteine pairing not given here
notes: as for B10
B14: EBA140 CTD, phosphorylated (peptide)
peptide: Biotin-RMGKSNEEYDIGESNIEATFEENNYLNKLSRIFNQEVQETNISDYSEYNYNEKNMY
modifications: also: phosphorylated, exact sites not determined
notes: also called EBA140 phosphorylated; source: phosphorylated synthetic peptide (Biomatik) or peptide phosphorylated in vitro
B15: RH4 CTD phosphorylated at S1667 or S1674 (peptide)
peptide: Biotin-KNSNEPHHIFNIFQKEFSEADNAHSEEKEEYLPVYFDEVEDEVEDEVEDEDENENEVENENEDFNDI
modifications: also: one phosphate at either Ser1667 (pos 18) or Ser1674 (pos 25)
notes: as for B10
B16: MTRAP CTD phosphorylated at Thr-459 and Thr-467 (peptide)
peptide: Biotin-YFLRKEK[pT]EKVVQEE[pT]KEENFEVMFNDDALKGKDNKAMDEEEFWALE
notes: as for B10
B17: MTRAP CTD phosphorylated at Thr-459 (peptide)
peptide: Biotin-YFLRKEK[pT]EKVVQEETKEENFEVMFNDDALKGKDNKAMDEEEFWALE
notes: as for B10

Where no end group is shown, it is not given here. [ ]: non-standard residue; d: D form. The star is where a group is joined. Biotin = O=C1N[C@H]2[C@H](CS[C@H]2CCCCC(=O)*)N1; pT = C[C@@H](OP(=O)(O)O)[C@H](N)C(=O)O; pS = N[C@@H](COP(=O)(O)O)C(=O)O

The first test has as its target T1, P. falciparum aldolase (P. falciparum, UniProt Q7KQL9 1-369).
T1 construct: also called fructose 1,6-bisphosphate aldolase; parasite aldolase; source: prepared as described previously [42]
T1 sequence (looked up): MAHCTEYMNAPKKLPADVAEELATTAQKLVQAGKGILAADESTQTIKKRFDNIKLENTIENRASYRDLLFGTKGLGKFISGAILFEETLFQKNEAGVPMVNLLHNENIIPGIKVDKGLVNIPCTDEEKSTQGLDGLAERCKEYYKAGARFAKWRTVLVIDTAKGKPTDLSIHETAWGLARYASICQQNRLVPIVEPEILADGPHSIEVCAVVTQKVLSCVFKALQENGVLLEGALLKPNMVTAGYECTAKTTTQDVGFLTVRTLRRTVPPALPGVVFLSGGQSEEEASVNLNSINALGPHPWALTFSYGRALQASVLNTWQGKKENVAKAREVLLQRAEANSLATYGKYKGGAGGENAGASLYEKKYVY
Briefly: BLI. Particulars: both partners purified.
B1: the Kd (commonly a measure of binding affinity in units of concentration) stood at 96 µM.
Still for that read-out and setting: under B2 stands 13.8 µM.
The molecule B3 had a Kd of 17 µM.
Same read-out and setting: under B4 stands 53 µM; under B5, 130 µM; under B6, 3.5 µM.
On the same count and under the same terms, next, B7: 83 µM; B8: 125 µM; B9: 5 µM.

For a further test, the target named is T1, P. falciparum aldolase. Briefly: BLI. The settings on record: both partners purified. The source holds these as a separate data set.
On to B10, for which the equilibrium dissociation constant (Kd) was 1.9 µM.
On the same count and under the same terms, next, B11: 44 µM.
Still for that read-out and setting: next, B12: 38 µM; B13: 11 µM; B14: 35 µM.
Regarding B15, the Kd was 2.5 µM.
Same read-out and setting: under B16 stands 0.9 µM; under B17, 3.5 µM.

For the origin of these results see publication PMC5015959, “The Binding of Plasmodium falciparum Adhesins and Erythrocyte Invasion Proteins to Aldolase Is Enhanced by Phosphorylation” (PLoS ONE, 2016).
